Where only a bound is given, the exact number is not on record here.

Test [1] concerns the target N-terminal Myc epitope-tagged human PSF2 (Myc-PSF2) (UniProt Q9Y248). Briefly: co-immunoprecipitation (IP anti-Flag, IB anti-Myc), band ratio. To be noted: 293T cells, transient expression.
The target in test [2] is T1, GFP-Flag-Snm1B^221–363 (human, UniProt Q9H816 221-363).
T1 construct: Named GFP-Flag-Snm1B: the Flag tag is at the 5′ end of the Snm1B fragment, GFP is fused in frame; also called PSF2 BR1; source: 293T, transiently transfected (pEGFP-C3), in lysate; not shown: Flag, N-terminal, kept
T1 sequence (looked up): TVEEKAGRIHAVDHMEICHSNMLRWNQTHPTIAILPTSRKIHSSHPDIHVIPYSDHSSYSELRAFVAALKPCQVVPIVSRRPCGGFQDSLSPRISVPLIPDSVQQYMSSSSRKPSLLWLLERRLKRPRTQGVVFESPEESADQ
Briefly: co-IP; 293T transiently co-transfected, RIPA lysate, GFP-Flag-Snm1B fragments immunoprecipitated with anti-GFP antibody and GammaBind G Sepharose, immunoblot anti-Myc. Conditions: partners not purified.

For test [3], the target named is T2, Flag-Snm1B^Δ222–363 (human, UniProt Q9H816 1-221; Q9H816 364-532).
T2 construct: RGR is my translation read in frame from its first base; source: 293T, transiently transfected (pLPC), in lysate; not shown: Flag, N-terminal, kept
T2 chain: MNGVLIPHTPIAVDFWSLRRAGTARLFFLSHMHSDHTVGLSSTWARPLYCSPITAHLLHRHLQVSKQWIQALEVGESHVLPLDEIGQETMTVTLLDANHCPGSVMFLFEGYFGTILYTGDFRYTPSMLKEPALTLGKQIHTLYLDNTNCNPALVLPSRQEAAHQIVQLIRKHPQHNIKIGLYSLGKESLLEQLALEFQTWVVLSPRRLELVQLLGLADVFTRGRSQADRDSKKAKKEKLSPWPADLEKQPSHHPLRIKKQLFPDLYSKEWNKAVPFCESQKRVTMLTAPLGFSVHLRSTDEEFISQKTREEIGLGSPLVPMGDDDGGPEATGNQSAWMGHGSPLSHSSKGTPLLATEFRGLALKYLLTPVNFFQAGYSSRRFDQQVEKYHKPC
Briefly: co-IP; 293T transiently co-transfected, RIPA lysate, Flag-Snm1B immunoprecipitated with anti-Flag M2 affinity gel at 4°C overnight, immunoblot for Myc-PSF2 or Mus81; with or without co-expressed Myc-PSF2 or HA-Mus81. To be noted: partners not purified. For orientation: In western blotting, separated proteins are transferred to a membrane and probed.

Test [4] addresses T3, N-terminal Flag epitope-tagged human Snm1B (Flag-Snm1B) (human, UniProt Q9H816 1-532).
T3 construct: also called Flag-Snm1B-WT; Flag-Snm1B^WT; source: 293T, transiently transfected (pLPC), in lysate; not shown: Flag, N-terminal, kept
T3 sequence (looked up): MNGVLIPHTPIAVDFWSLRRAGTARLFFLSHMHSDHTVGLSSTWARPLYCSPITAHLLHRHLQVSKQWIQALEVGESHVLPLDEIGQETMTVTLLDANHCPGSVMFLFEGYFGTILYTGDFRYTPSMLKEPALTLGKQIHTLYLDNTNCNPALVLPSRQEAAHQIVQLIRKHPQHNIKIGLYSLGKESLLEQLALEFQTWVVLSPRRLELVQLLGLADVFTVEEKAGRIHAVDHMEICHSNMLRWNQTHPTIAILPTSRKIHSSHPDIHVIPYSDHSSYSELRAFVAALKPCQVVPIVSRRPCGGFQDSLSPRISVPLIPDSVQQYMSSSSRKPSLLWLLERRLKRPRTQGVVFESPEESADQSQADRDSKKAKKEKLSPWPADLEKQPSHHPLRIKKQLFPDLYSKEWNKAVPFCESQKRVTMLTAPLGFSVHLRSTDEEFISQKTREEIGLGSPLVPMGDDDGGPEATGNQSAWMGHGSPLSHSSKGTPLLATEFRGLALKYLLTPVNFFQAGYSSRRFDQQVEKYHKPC
Described as above. Conditions: partners not purified.

“N-terminal Flag epitope-tagged human Snm1B (Flag-Snm1B) (from UniProt Q9H816) N2”: the other: normalized Myc-PSF2:Flag-Snm1B ratio came out at 1.05 in test [1] (no Myc-TRF2 co-expressed, parent: 1) and 0.81 in test [1] (wild type Myc-TRF2 co-expressed (parent value is Flag-Snm1B WT + Myc-TRF2 WT + Myc-PSF2 lane), parent: 0.41).

B1: N-terminal Myc epitope-tagged human PSF2 (Myc-PSF2) (natural protein, UniProt Q9Y248 1-185, looked up)
chain: MDAAEVEFLAEKELVTIIPNFSLDKIYLIGGDLGPFNPGLPVEVPLWLAINLKQRQKCRLLPPEWMDVEKLEKMRDHERKEETFTPMPSPYYMELTKLLLNHASDNIPKADEIRTLVKDMWDTRIAKLRVSADSFVRQQEAHAKLDNLTLMEINTSGTFLTQALNHMYKLRTNLQPLESTQSQDF
notes: PSF2, subunit of the GINS complex, human, full length; amplified from clone MGC-673 (ATCC); source: 293T, transiently transfected (pCMV-MYC), in lysate; not shown: Myc, N-terminal, kept
Take B1: the “fold of co-immunoprecipitated Myc-PSF2 against GFP-Flag-Snm1B 413–532” value in test [2] is ~3 fold more. The “fold of co-immunoprecipitated Myc-PSF2 against Flag-Snm1B WT” value in test [3] was ~6 fold less.

B2: HA epitope-tagged Mus81 (HA-Mus81) (natural protein, UniProt Q96NY9 1-551, looked up)
chain: MAAPVRLGRKRPLPACPNPLFVRWLTEWRDEATRSRRRTRFVFQKALRSLRRYPLPLRSGKEAKILQHFGDGLCRMLDERLQRHRTSGGDHAPDSPSGENSPAPQGRLAEVQDSSMPVPAQPKAGGSGSYWPARHSGARVILLVLYREHLNPNGHHFLTKEELLQRCAQKSPRVAPGSARPWPALRSLLHRNLVLRTHQPARYSLTPEGLELAQKLAESEGLSLLNVGIGPKEPPGEETAVPGAASAELASEAGVQQQPLELRPGEYRVLLCVDIGETRGGGHRPELLRELQRLHVTHTVRKLHVGDFVWVAQETNPRDPANPGELVLDHIVERKRLDDLCSSIIDGRFREQKFRLKRCGLERRVYLVEEHGSVHNLSLPESTLLQAVTNTQVIDGFFVKRTADIKESAAYLALLTRGLQRLYQGHTLRSRPWGTPGNPESGAMTSPNPLCSLLTFSDFNAGAIKNKAQSVREVFARQLMQVRGVSGEKAAALVDRYSTPASLLAAYDACATPKEQETLLSTIKCGRLQRNLGPALSRTLSQLYCSYGPLT
notes: Mus81, subunit of the Mus81/Eme1 endonuclease; amplified from clone MGC:14953 (Imagenes); Detected with an anti-Mus81 antibody, which may also see the endogenous Mus81 of 293T cells; source: 293T, transiently transfected (pcDNA3), in lysate; not shown: HA, N-terminal, kept
On to B2, for which the “fold increase of co-immunoprecipitated Mus81 with Myc-PSF2 against without Myc-PSF2” value in test [4] is > 2 fold.

Values taken from article PMC3506659, “Snm1B Interacts with PSF2” (PLoS ONE, 2012).
